Measurements reported in paper PMC9696088, “Alicyclobacillus mali FL18 as a Novel Source of Glycosyl Hydrolases: Characterization of a New Thermophilic β-Xylosidase Tolerant to Monosaccharides” (International Journal of Molecular Sciences, 2022).

Tests used:
[1] = biological target: AmβXyl, β-xylosidase (GH3) from Alicyclobacillus mali FL18 (Alicyclobacillus mali FL18); assay: SEC-MALS; size-exclusion chromatography (S200 16/60) with triple-angle light scattering and QELS; 500 μg loaded; 100 mM NaCl, 25 mM sodium phosphate pH 7.5, 1 mM DTT; 0.5 mL/min
[2] = substrate: O=[N+]([O-])c1ccc(O[C@@H]2OC[C@@H](O)[C@H](O)[C@H]2O)cc1; assay: pNP release, A405 nm, Michaelis-Menten fit (GraphPad Prism); assay type: biochemical, Alicyclobacillus mali (ex Roth et al. 2021); conditions: 50 mM sodium citrate pH 5.6, 1 mM DTT, 80 °C, substrate 0.1-8.0 mM
Excerpt: (§1) pNP release, A405 nm, Michaelis-Menten fit (GraphPad Prism) on AmβXyl

[3] = substrate: O=[N+]([O-])c1ccc(O[C@@H]2O[C@@H](CO)[C@H](O)[C@H]2O)cc1; assay: as above; assay type: biochemical, Alicyclobacillus mali (ex Roth et al. 2021); conditions: 50 mM sodium citrate pH 5.6, 1 mM DTT, 80 °C, substrate 0.1-8.0 mM
Excerpt: as §1

Row | stoichiometry N [1] | Molecule | Km [2] | kcat [2] | kcat/Km [2] | Km [3] | kcat [3] | kcat/Km [3]
1 | 2 | AmβXyl, β-xylosidase (GH3) from Alicyclobacillus mali FL18 (enzyme) | – | – | – | – | – | –
2 | – | AmβXyl (Alicyclobacillus mali (ex Roth et al. 2021)) (protein, synthetic codon-optimised gene in pET-30a(+) NcoI/HindIII, N-terminal His-tag; E. coli BL21 (DE3) RIL; ~89 kDa on SDS-PAGE, dimer ~177 kDa) MYLDPAQSVDARVDALLADMTLEEKVAQLTSIWAFEILDDLRFSAEKAAAVLGQGIGQVTRIGGATNLDPPDVARLANQIQRYLRDHTRLGIPALIHEESCSGYMAKGATCFPQTIGIASTWDVDLAQRIGAIIRDQMRAVGARQALAPLLDVARDPRWGRVEETFGEDPYLVAQMGIAYVRGLQGEDLSQGVMATGKHFVGYGASEGGMNWAPAHIPERELREVYLFPFEAAVREAGLGAIMPGYHELDGVPCHDNPGLLRETLRGRWGFQGLVVSDYFAVNQLFEYHQVARDKAEAAALAVRAGVDVELPTRDVYGKPLIEAVARGLVSVAEIDELVRRVLTWKFRLGLFDHPFVDEGAAIAVFDNAEQRKVAREAAEKSLVLLKNDGLLPLAPRGTIAVIGPNAHTTRNLVGDYAYPCHIESLLEQSEDNVFQTPLPSGVKHVDEFIPMRTILEAIGHRVGSEAQVVYAKGCDVLEGEDADLDEAVALAAQSDVAVVVVGDRAGLTDACTTGESRDRATLSLIGRQEELVRRVLATGTKTVVVLVSGRPLAIPDIAERANAVLEAWLPGEEGAEAVAAVLFGDVNPSGKLPVTIPRSVGQVPIYYGHKPSGGRSHWKGAYVDESNLPLYPFGHGLSYTAFEYRDLTLSASELGVHGEIEVACVIENVGARAGEEVVQLYARDVAADVTRPVKVLCGFARVPLAPGEKARVRFRVSAHQFGFYNREMRYVVEPGEIEIMVGASSEDIRLRGMVRIHGAMTEIEHEKVYQSAVNVERM | 0.52 mM | 1610 s⁻¹ | 3.09e+06 M⁻¹ s⁻¹ | 10.56 mM | 2400 s⁻¹ | 227000 M⁻¹ s⁻¹
